Three molecules from PMC6602974 (2019) can be followed below.

B1: DH753 monoclonal antibody (IgG1) (antibody, V domains shown)
VH: EVHLVESGGGLVQPGGSLRLSCEVSGLTFSNSWMSWVRQAPGKGLEWVGFIKTKADGGTAAYAESVKGRFTISRDDSKNTVFLQMKSLKTEDTAVYYCQGAVVISHEYIEIWGQGALVTVSS
VL: QSVLTQPPSASEAARKSVTISCSGGSSNIGDDSVSWYQQVPGTAPKLLIYYNDRRASGVSDRFSGSKSGTSASLAINGLQSEDEADYYCAAWDDSLSAYIFGSGTRLTVL
B2: CH505 transmitted founder gp120 (domain or fragment)
chain: not shown
B3: DH727.2 monoclonal antibody (IgG1) (antibody, V domains shown)
VH: QVQLVQSGAEVKKPGASVKLSCKASGNTFSIYGISWVRQAPGQGLEWMGGIIPPAGLTNYVQRFQGRVTITADTSTTTVYMELSSLTSEDTAVYYCAIRIGRGFDYWGQGVLVTVSS
VL: DIVMTQSPLSLPVTPGETASISCRSSQSLLDSEDGNTYLEWYLQKPGQSPQALIYEASNRASGVPDRFSGSGSDTDFTLKISRVEAEDVGIYYCMQTIEYPFTFGPGTKVDIK

The target of experiment [1] is B2. In words: SPR.
The target of experiment [2] is DH796.1. In words: SPR.

In the case of B1, binding in experiment [1] was put at a Kd of 1.2 nM. That is a single-digit nanomolar value. Consider B2, for which the affinity in experiment [2], expressed as Kd, was 253 nM. In the case of B3, the Kd (as a rule, the equilibrium constant for the complex coming apart) in experiment [1] is 10.9 nM. This lies in the double-digit nanomolar range.
